This is an account of results in publication PMC4101993 (Nature structural & molecular biology, 2014).

This data set deals with the molecule itself. In words: SEC-MALS.

B1: Purified EttA (gel filtration with static light scattering) (natural protein, E. coli)
chain: MAQFVYTMHRVGKVVPPKRHILKNISLSFFPGAKIGVLGLNGAGKSTLLRIMAGIDKDIEGEARPQPDIKIGYLPQEPQLNPEHTVRESIEEAVSEVVNALKRLDEVYALYADPDADFDKLAAEQGRLEEIIQAHDGHNLNVQLERAADALRLPDWDAKIANLSGGERRRVALCRLLLEKPDMLLLDEPTNHLDAESVAWLERFLHDFEGTVVAITHDRYFLDNVAGWILELDRGEGIPWEGNYSSWLEQKDQRLAQEASQEAARRKSIEKELEWVRQGTKGRQSKGKARLARFEELNSTEYQKRNETNELFIPPGPRLGDKVLEVSNLRKSYGDRLLIDDLSFSIPKGAIVGIIGPNGAGKSTLFRMISGQEQPDSGTITLGETVKLASVDQFRDSMDNSKTVWEEVSGGLDIMKIGNTEMPSRAYVGRFNFKGVDQGKRVGELSGGERGRLHLAKLLQVGGNMLLLDEPTNDLDIETLRALENALLEFPGCAMVISHDRWFLDRIATHILDYQDEGKVEFFEGNFTEYEEYKKRTLGADALEPKRIKYKRIAK
In the case of B1, the “stoichiometry N” value came to 2.
